Data reported in US6767720 (VLAAMS INTERUNIVERSITAIR INSTITUUT VOOR BIOTECHNOLOGIE VZW, dated 2004).

Target: T1, ANC-2H01 initial two-hybrid clone (part of ANC-2H01 fused to the GAL4-AD, plasmid pGAD10ANC2H01) (human, UniProt Q9UID6 27-485)
T1 construct: 27-485 is derived from 459 of 485 residues; also called ANC-2H01 clone; initial ANC-2H01 two-hybrid clone
T1 sequence: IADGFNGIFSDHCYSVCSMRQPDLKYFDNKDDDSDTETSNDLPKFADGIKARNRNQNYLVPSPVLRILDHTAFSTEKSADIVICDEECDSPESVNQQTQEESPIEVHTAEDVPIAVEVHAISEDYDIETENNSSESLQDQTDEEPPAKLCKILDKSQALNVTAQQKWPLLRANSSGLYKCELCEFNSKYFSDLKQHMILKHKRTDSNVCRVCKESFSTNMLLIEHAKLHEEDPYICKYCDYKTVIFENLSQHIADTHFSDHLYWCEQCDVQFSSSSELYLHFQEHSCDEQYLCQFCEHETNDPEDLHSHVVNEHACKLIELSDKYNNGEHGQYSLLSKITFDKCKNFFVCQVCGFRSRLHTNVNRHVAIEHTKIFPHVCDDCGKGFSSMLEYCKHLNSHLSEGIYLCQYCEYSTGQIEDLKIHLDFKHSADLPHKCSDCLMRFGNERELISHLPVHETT
Assay: yeast two-hybrid, strain HF7c, HIS3 and LacZ reporters
Protocol: The HF7c yeast strain carries two reporter genes, HIS3 and LacZ, both integrated into the yeast genome and under the control of GAL4 responsive elements, respectively, the GAL1 UAS and the UAS_G-17mer. It has also two auxotrophic markers, trp1 and leu2, which are used for plasmid selection upon transformation. Yeast cultures were grown at 30° C. in either complete YPD medium (1% yeast extract, 2% peptone and 2% glucose) or in SD minimal medium (0.5% yeast nitrogen base without amino acids, 2% glucose, and 1% of the appropriate amino acid drop out solution).
The isolated two-hybrid clone was retransformed into the HF7c strain.

B1: lamin C fused to the GAL4 DNA binding domain (plasmid pLAM5′) (other, UniProt P04386 1-147, looked up)
chain: MKLLSSIEQACDICRLKKLKCSKEKPKCAKCLKNNWECRYSPKTKRSPLTRAHLTEVESRLERLEQLFLLIFPREDLDMILKMDSLQDIKALLTGLFVQDNVNKDAVTDRLASVETDMPLTLRQHRISATSSSEESSNKGQRQLTVSSEEVVSREVSGIKAAYEAELGDARKTLDSVAKERARLQLELSKVREEFKELKARNTKKEGDLIAAQARLKDLEALLNSKEAALSTALSEKRTLEGELHDLRGQVAKLEAALGEAKKQLQDEMLRRVDAENRLQTMKEELDFQKNIYSEELRETKRRHETRLVEID
notes: Irrelevant control protein
  binding result: no binding
